Biological target: the molecule itself
Assay: cryo-EM structure; Dr-VSP (C302S) in MSP2N2 lipid nanodiscs (Dr-VSP:MSP2N2:lipid 1:4:400), 20 mM Tris, 150 mM NaCl, 5 mM EGTA, pH 8, 5.6 mg/ml; class of particles with the cytoplasmic domain as a dimer, 3.0 Å

B1: Danio rerio voltage-sensing phosphatase (Dr-VSP) with the active site cysteine mutated to serine (C302S) (enzyme, UniProt Q4V9E4 1-511, looked up)
chain: MTSVHFNPGLDSKEVNGNSVKEEAEVQIDDGKEETKDPDTMYHQVRKKITPFVMSFGFRVFGLVLIILDIIMVIVDLSLSEKSRDVGGAPETVSLVISFFFLIDVLLRVYVEGFKVYFSSKLNIVDACIVVITLVVTMIYAFSDFSGASLIPRVVTFLRSLRILILVRIFRLASQKRELEKVTRRMVSENKRRYQKDGFDLDLTYVTERVIAMSFPSSGKQALYRNPIREVVRFLDTKHMDHYKVFNLCSEKGYDPKFFHYRVERVMIDDHNVPSLDDMLRYTACVRDWMAADSRNVIAIHSKGGKGRTGTMVCTWLIDSDQFESAQESLDYFGERRTDKSMSSKFQGVETPSQSRYVGYYEIMKNQYNRQLPPRKSLKIKSIRIHSIAGVGKGNGSDLKLKIIVKHELVFQCVCAKQHNCTVFPDTGSNAVVISLQDGPIVTGDVKVMFESSAGLPKGYEDCPFYFWFNTSFVENYRLFLSREELDNPHKPKTWDIYKEDFGVTLSFTEP
notes: Danio rerio voltage-sensing phosphatase (Dr-VSP), full-length construct in a modified pPICZ-B vector, with C302S; only the cytoplasmic domain is resolved in the dimer map; The methods name the full-length Dr-VSP construct; also called Dr-VSP (C302S); Danio rerio VSP C302S; not shown: eGFP, C-terminal, cleaved; His10, C-terminal, cleaved
  stoichiometry N: 2
